The record followed here is patent US20250340636A1 (Memorial Sloan Kettering, published 2025).

Assay [1] has as its target T1, soluble cynomolgus monkey L1CAM, His-tagged, monomeric (cynomolgus monkey, UniProt A0A2K5URB5 20-1120).
T1 construct: also called cyL1CAM protein; cynomolgus L1CAM-His
In words: summary table; soluble cynomolgus monkey L1CAM (monomer). On the procedure: (§1) Cross-reactivity to Cynomolgus Monkey L1CAM. Affinity to cynomolgus L1CAM was measured by BLI using an Octet Red96e instrument. […] The data was prepared by reference well subtraction, and response curves were globally fit to a 1:1 Langmuir binding model.

Assay [2] deals with T2, soluble mouse L1CAM (monomer), His-tagged (mouse, UniProt P11627 20-1123, limits assumed).
T2 construct: read as mouse
In words: summary table; soluble mouse protein (row printed as 'mouse CD40 (monomer)', read as mouse L1CAM). As for the experimental part: (§2) Cross-reactivity to Mouse L1CAM. Affinity to mouse L1CAM was measured by BLI using an Octet Red96e instrument. […] The data was prepared by reference well subtraction, and response curves were globally fit to a 1:1 Langmuir binding model.

The target of assay [3] is T1, soluble cynomolgus monkey L1CAM, …. In words: BLI (Octet Red96e), His-tagged cynomolgus L1CAM on Ni-NTA biosensors, mAb as analyte, 1:1 fit. As for the experimental part: as §1
(Biolayer interferometry detects binding as a change in optical thickness at a sensor tip.)

The target in assay [4] is T3, human L1CAM on cells (human, UniProt P32004 20-1257).
T3 construct: Overexpressed on stably transfected HEK293T cells or endogenous on MCF-7 and MDA-MB-231 cells; also called HEK293T-hL1CAM
As to the kind of experiment: summary table; binding to cells overexpressing human L1CAM (HEK293T). On the procedure: (§3) Binding to L1CAM on Cells. […] Cells were then incubated with an AlexaFluor 647 goat anti-human Fc secondary antibody. After washing, the stained cells were analyzed by flow cytometry.
(§4) The binding curves for each antibody and cell line normalized to secondary antibody only staining (MFI ratio) are shown in FIGS. 14A-14C. EC50 values were determined by non-linear regression (Table 70). […] It is possible that differences in the conformation and oligomerization of L1CAM, depending on the surface expression level, contributed to the binding pattern. […] An avidity effect due to high levels of L1CAM surface expression may have contributed to the strong binding observed in this experiment.

Assay [5] addresses T4, mouse L1CAM on transiently transfected HEK293FT cells (mouse, UniProt P11627 20-1260).
T4 construct: whole, on cells; also called mouse L1CAM on cells
As to the kind of experiment: flow cytometry, HEK293FT cells transiently transfected with mouse L1CAM (data not shown). In general terms: A flow cytometer gives signals particle by particle.

For assay [6], the target named is T2, soluble mouse L1CAM (monomer), …. As to the kind of experiment: BLI, mouse against human L1CAM-His. On the procedure:
as §2

Assay [7] has as its target T3, human L1CAM on cells. As to the kind of experiment: flow cytometry, MCF-7 cells, AlexaFluor 647 anti-human Fc secondary. On the procedure:
as §3, §4

T2 sequence (P11627 20-1123 limits assumed): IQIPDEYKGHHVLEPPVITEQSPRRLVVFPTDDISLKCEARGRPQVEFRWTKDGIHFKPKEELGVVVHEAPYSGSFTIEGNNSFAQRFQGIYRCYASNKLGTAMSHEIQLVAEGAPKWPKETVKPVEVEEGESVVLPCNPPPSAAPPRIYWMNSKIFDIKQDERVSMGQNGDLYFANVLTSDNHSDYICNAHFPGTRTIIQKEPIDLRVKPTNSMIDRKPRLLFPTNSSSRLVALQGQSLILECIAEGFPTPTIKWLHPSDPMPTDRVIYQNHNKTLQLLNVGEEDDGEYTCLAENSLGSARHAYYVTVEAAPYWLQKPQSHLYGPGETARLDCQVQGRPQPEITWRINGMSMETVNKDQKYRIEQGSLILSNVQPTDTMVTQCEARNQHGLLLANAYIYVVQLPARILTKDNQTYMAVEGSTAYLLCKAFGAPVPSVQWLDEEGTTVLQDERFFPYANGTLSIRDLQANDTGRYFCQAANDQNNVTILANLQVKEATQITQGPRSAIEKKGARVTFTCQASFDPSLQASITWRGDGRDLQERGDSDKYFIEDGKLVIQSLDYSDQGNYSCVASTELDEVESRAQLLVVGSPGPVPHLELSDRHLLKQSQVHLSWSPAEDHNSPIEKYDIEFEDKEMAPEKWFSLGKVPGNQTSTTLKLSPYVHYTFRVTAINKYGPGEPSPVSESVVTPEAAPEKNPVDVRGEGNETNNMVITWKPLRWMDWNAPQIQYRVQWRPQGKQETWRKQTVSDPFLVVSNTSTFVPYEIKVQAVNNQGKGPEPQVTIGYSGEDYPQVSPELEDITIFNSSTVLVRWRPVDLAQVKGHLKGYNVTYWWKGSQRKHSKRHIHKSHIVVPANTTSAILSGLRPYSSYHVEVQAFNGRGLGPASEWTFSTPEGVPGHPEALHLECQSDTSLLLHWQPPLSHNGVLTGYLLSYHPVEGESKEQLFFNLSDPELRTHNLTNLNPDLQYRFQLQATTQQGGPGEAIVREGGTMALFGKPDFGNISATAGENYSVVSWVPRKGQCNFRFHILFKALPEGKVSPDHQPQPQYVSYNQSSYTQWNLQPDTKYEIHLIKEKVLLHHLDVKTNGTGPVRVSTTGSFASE
T3 sequence (P32004 20-1257): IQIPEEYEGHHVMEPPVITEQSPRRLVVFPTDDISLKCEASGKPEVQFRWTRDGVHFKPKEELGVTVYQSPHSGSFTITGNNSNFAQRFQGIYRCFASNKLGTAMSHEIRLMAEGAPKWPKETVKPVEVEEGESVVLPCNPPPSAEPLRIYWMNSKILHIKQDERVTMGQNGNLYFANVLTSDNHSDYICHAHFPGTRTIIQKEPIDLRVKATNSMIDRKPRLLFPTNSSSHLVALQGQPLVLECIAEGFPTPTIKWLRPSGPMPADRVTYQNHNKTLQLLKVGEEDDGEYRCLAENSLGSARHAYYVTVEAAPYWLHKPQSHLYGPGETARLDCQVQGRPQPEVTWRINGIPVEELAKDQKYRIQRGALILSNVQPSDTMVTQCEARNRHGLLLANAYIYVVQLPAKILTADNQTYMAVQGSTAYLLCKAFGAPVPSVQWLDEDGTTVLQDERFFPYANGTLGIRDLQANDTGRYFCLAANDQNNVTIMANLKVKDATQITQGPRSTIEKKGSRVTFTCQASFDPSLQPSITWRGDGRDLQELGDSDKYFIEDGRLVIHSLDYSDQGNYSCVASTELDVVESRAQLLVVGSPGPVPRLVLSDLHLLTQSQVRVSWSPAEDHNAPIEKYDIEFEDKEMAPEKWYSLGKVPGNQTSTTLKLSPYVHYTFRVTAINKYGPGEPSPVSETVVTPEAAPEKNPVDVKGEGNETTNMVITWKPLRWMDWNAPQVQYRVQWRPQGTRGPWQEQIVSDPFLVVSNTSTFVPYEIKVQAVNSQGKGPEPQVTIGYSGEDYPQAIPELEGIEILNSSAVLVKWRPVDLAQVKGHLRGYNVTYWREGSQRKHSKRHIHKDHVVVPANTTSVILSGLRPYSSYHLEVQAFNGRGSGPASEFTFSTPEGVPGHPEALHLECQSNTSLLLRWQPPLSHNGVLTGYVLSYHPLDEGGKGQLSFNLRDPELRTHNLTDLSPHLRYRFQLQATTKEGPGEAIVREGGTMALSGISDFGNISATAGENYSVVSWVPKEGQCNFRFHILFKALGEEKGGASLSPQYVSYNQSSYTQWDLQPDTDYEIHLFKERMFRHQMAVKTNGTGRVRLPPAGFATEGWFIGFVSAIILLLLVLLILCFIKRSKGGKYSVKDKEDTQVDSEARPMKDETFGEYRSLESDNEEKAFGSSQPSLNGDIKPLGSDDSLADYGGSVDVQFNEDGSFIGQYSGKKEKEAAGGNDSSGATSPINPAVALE
T4 sequence (P11627 20-1260): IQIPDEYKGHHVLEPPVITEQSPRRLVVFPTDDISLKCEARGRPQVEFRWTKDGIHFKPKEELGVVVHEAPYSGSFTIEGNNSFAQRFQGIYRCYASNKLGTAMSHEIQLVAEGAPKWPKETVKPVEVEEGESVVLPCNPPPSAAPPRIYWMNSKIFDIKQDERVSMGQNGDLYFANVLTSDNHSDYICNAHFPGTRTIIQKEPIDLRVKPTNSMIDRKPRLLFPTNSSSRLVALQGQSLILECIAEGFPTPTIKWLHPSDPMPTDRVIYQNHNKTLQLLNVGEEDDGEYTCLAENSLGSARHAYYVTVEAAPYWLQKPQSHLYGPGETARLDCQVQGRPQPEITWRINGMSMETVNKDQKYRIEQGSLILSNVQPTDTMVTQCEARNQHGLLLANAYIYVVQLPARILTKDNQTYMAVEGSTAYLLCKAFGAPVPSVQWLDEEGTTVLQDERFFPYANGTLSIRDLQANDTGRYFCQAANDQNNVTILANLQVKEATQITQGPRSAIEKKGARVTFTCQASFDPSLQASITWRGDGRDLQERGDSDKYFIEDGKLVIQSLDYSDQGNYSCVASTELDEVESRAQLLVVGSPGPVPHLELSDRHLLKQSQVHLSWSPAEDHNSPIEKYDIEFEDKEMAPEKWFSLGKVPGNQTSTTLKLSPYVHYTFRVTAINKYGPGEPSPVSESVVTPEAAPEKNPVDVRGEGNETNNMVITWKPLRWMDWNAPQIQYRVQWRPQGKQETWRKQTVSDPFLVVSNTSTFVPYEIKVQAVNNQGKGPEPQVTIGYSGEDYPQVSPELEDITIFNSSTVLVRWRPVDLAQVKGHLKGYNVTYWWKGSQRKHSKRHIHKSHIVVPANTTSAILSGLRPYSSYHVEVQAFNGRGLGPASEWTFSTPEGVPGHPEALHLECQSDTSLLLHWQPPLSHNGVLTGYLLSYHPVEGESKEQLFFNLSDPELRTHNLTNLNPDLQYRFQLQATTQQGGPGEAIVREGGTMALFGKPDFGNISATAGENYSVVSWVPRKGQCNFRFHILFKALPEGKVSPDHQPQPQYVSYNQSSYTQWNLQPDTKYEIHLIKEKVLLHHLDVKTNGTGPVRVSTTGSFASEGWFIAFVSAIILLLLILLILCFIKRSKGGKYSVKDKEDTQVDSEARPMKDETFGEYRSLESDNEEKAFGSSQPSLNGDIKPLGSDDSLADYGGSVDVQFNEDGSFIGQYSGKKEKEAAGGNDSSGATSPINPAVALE

B1: TDI-Y-005 (antibody, human IgG1, kappa, V domains shown)
VH: EVQMVESGGGLVQPGGSLRLSCAAPGFIFSSYNMNWVRQAPGKGLEWVSYISSSSSTTYYADSVKGRFTISRDNAKNSLYLQMNSLRDEDTAVYYCASLYSGYDYYYYYGMDVWGQGTTVTVSS
VL: DIVMTQTPLSSPVSLGQPASISCRSSQSLVHSDGNTYLSWLQQRPGQPPRVLIYKISKRFSGVPDRFSGSGAGTDFTLKISRVEAEDVGVYYCMQATQFPFTFGPGTKVDIKR
notes: Human IgG1, kappa; also called human 14A10 mAb; fully human 14A10 mAb
Regarding B1, the Kd (usually the concentration at which binding is half-saturated) came out at 1.3 nM in assay [1], 34 nM in assay [2] and 1.3 nM in assay [3]. Also, the figures for the koff in assay [1], in assay [2] and in assay [3] were 0.00012 s⁻¹, 0.0011 s⁻¹ and 0.00012 s⁻¹, respectively. The kon (in general, the rate constant with which the complex forms) in assay [1] was found to be 93000 M⁻¹ s⁻¹; in assay [2], 31000 M⁻¹ s⁻¹; in assay [3] it was 93000 M⁻¹ s⁻¹. Further, the EC50 – broadly, the midpoint of the concentration-response curve – with human L1CAM on cells [4] was 2 nM; in assay [5], 0.9 nM; with human L1CAM on cells [7], 2.5 nM. Also, in assay [6], the “fold difference of KD against human L1CAM” value was ≤ 8 fold.
